Earlier results in article PMC5120336.

Molecular target: IRAK-4 kinase domain (Homo sapiens) (UniProt Q9NWZ3)

IRAK-4 kinase domain, sequence (Q9NWZ3 154-460): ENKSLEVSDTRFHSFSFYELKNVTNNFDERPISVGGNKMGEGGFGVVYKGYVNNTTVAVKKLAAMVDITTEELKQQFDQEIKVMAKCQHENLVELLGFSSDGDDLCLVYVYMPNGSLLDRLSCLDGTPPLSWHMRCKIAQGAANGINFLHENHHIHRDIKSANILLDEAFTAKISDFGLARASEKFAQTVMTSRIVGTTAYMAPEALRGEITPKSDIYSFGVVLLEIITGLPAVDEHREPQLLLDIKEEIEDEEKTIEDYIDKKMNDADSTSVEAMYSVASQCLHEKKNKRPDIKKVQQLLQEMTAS

Kd: 2500 nM
Substance: IRAK-4 kinase domain (from UniProt Q9NWZ3)
